Results reported in the supplement of paper PMC9112550, “Optimization of the antimicrobial peptide Bac7 by deep mutational scanning” (BMC Biology, 2022).

test system: Escherichia coli TOP10; experiment: shrunken log2 fold change of peptide-encoding DNA abundance (4.5 h post-induction vs induction); higher = less antimicrobial activity (less host growth inhibition); settings: time post-induction: 4.5 h; library: site-saturation at positions 5, 18, 19, 20
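Further: peptides expressed intracellularly from a pBAD plasmid library in pooled LB shake-flask culture, induced with 0.3% L-arabinose, DNA abundance read by NGS, three biological replicates, DESeq2 with apeglm shrinkage.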

Point of comparison: RRIRCRPPRLPRPRPRPKPYPRP, “shrunken log2 fold change” value 0.179. Against it:
- RRIRCRPPRLPRPRPRPQKQPRP — within 0.2 log units, 0.0183
- RRIRMRPPRLPRPRPRPVQHPRP — higher, 0.415
- RRIRQRPPRLPRPRPRPSTRPRP — within 0.2 log units, 0.00434
- RRIRDRPPRLPRPRPRPDRIPRP — lower, -0.0411
- RRIRNRPPRLPRPRPRPSWLPRP — lower, -0.361
- RRIRLRPPRLPRPRPRPDDNPRP — lower, -0.138
- RRIRHRPPRLPRPRPRPMYPPRP — lower, -0.304
- RRIRDRPPRLPRPRPRPRLAPRP — higher, 0.686
- RRIRKRPPRLPRPRPRPYSPPRP — lower, -0.23
- RRIRHRPPRLPRPRPRPWAPPRP — lower, -0.251
- RRIRIRPPRLPRPRPRPWLIPRP — within 0.2 log units, 0.0717
- RRIRVRPPRLPRPRPRPKQQPRP — within 0.2 log units, 0.0386
- RRIRCRPPRLPRPRPRPCNYPRP — lower, -1.4
- RRIRIRPPRLPRPRPRPQQYPRP — lower, -0.808
- RRIRQRPPRLPRPRPRPPCWPRP — within 0.2 log units, 0.102
- RRIRDRPPRLPRPRPRPPPCPRP — higher, 0.443
- RRIRVRPPRLPRPRPRPRPHPRP — within 0.2 log units, 0.351
- RRIRDRPPRLPRPRPRPWRRPRP — within 0.2 log units, 0.0906
- RRIRQRPPRLPRPRPRPQAMPRP — within 0.2 log units, 0.015
- RRIRTRPPRLPRPRPRPIPMPRP — lower, -0.38
- RRIRQRPPRLPRPRPRPKKIPRP — lower, -0.0759
- RRIRFRPPRLPRPRPRPNQHPRP — lower, -0.275
- RRIRMRPPRLPRPRPRPCHYPRP — lower, -0.112
- RRIRCRPPRLPRPRPRPLIAPRP — lower, -0.0852
- RRIRKRPPRLPRPRPRPVCDPRP — higher, 0.683
- RRIRLRPPRLPRPRPRPYLYPRP — lower, -0.164
- RRIRNRPPRLPRPRPRPNSTPRP — higher, 2.34
- RRIRMRPPRLPRPRPRPLPTPRP — higher, 1.36
- RRIRIRPPRLPRPRPRPTQYPRP — lower, -0.616
- RRIRLRPPRLPRPRPRPCIRPRP — lower, -0.265
- RRIRSRPPRLPRPRPRPKEHPRP — within 0.2 log units, 0.0336
- RRIRLRPPRLPRPRPRPWPNPRP — within 0.2 log units, -0.0032
- RRIRMRPPRLPRPRPRPRDNPRP — higher, 0.455
- RRIRYRPPRLPRPRPRPEFWPRP — lower, -0.0503
- RRIRLRPPRLPRPRPRPFPDPRP — lower, -0.0465
- RRIRARPPRLPRPRPRPPIGPRP — within 0.2 log units, 0.287
- RRIRIRPPRLPRPRPRPMLEPRP — within 0.2 log units, 0.0741
- RRIRHRPPRLPRPRPRPKRTPRP — within 0.2 log units, 0.00166
- RRIRIRPPRLPRPRPRPPQFPRP — lower, -0.195
- RRIRFRPPRLPRPRPRPNIEPRP — lower, -0.288
- RRIRLRPPRLPRPRPRPWYLPRP — lower, -0.759
- RRIRERPPRLPRPRPRPTEKPRP — within 0.2 log units, 0.154
- RRIRIRPPRLPRPRPRPMDEPRP — within 0.2 log units, 0.00773
- RRIRIRPPRLPRPRPRPIGLPRP — lower, -0.242
- RRIRGRPPRLPRPRPRPHPIPRP — lower, -0.0927
- RRIRHRPPRLPRPRPRPSNKPRP — lower, -0.802
- RRIRNRPPRLPRPRPRPMLVPRP — lower, -0.0299
- RRIRVRPPRLPRPRPRPLWDPRP — within 0.2 log units, 0.00404
- RRIRIRPPRLPRPRPRPHLEPRP — lower, -0.384
- RRIRPRPPRLPRPRPRPDSAPRP — lower, -0.18
- RRIRARPPRLPRPRPRPDDHPRP — higher, 0.432
- RRIRCRPPRLPRPRPRPDATPRP — higher, 1.31
- RRIRMRPPRLPRPRPRPFVVPRP — lower, -0.254
- RRIRCRPPRLPRPRPRPFPHPRP — lower, -0.175
- RRIRRRPPRLPRPRPRPKLFPRP — within 0.2 log units, 0.37
- RRIRWRPPRLPRPRPRPPEHPRP — higher, 0.544
- RRIRRRPPRLPRPRPRPVGTPRP — within 0.2 log units, 0.018
- RRIRDRPPRLPRPRPRPIGPPRP — within 0.2 log units, 0.0272
- RRIRVRPPRLPRPRPRPGEQPRP — within 0.2 log units, -0.0154
- RRIRYRPPRLPRPRPRPTDRPRP — lower, -0.144
- RRIRLRPPRLPRPRPRPQAKPRP — lower, -0.0308
- RRIRDRPPRLPRPRPRPTSIPRP — within 0.2 log units, 0.099
- RRIRSRPPRLPRPRPRPNKPPRP — lower, -0.23
- RRIRHRPPRLPRPRPRPCTKPRP — within 0.2 log units, 0.0647
- RRIRYRPPRLPRPRPRPWKQPRP — lower, -0.0389
- RRIRIRPPRLPRPRPRPIVLPRP — lower, -0.181
- RRIRSRPPRLPRPRPRPNYMPRP — lower, -0.756
- RRIRTRPPRLPRPRPRPFALPRP — lower, -0.0597
- RRIRERPPRLPRPRPRPMGTPRP — lower, -0.272
- RRIRVRPPRLPRPRPRPEMVPRP — lower, -0.0955
- RRIRKRPPRLPRPRPRPDLTPRP — within 0.2 log units, -0.000918
- RRIRCRPPRLPRPRPRPKQVPRP — higher, 0.44
- RRIRFRPPRLPRPRPRPNDGPRP — lower, -0.222
- RRIRDRPPRLPRPRPRPMNSPRP — within 0.2 log units, -0.0173
- RRIRGRPPRLPRPRPRPPRGPRP — higher, 0.938
- RRIRLRPPRLPRPRPRPRDMPRP — within 0.2 log units, 0.00118
- RRIRGRPPRLPRPRPRPPMPPRP — higher, 0.659
- RRIRYRPPRLPRPRPRPLYNPRP — lower, -1.11
- RRIRSRPPRLPRPRPRPRDFPRP — higher, 0.528
- RRIRHRPPRLPRPRPRPCIHPRP — lower, -0.345
- RRIRYRPPRLPRPRPRPVTHPRP — within 0.2 log units, 0.00542
- RRIRARPPRLPRPRPRPYQWPRP — lower, -0.0841
- RRIRQRPPRLPRPRPRPQDYPRP — lower, -0.685
- RRIRVRPPRLPRPRPRPEESPRP — within 0.2 log units, 0.246
- RRIRKRPPRLPRPRPRPWKIPRP — within 0.2 log units, -0.00192
- RRIRIRPPRLPRPRPRPGHLPRP — lower, -0.101
- RRIRYRPPRLPRPRPRPCVPPRP — lower, -0.0398
- RRIRQRPPRLPRPRPRPHGAPRP — within 0.2 log units, 0.0316
- RRIRNRPPRLPRPRPRPVYNPRP — lower, -0.381
- RRIRVRPPRLPRPRPRPRMPPRP — within 0.2 log units, 0.278
- RRIRCRPPRLPRPRPRPFICPRP — lower, -0.57
- RRIRVRPPRLPRPRPRPHEIPRP — within 0.2 log units, 0.026
- RRIRMRPPRLPRPRPRPINTPRP — lower, -0.387
- RRIRNRPPRLPRPRPRPDFQPRP — lower, -0.156
- RRIRNRPPRLPRPRPRPCGCPRP — within 0.2 log units, 0.0239
- RRIRTRPPRLPRPRPRPISVPRP — lower, -0.0512
- RRIRYRPPRLPRPRPRPWVGPRP — lower, -0.352
- RRIRPRPPRLPRPRPRPFDNPRP — lower, -0.299
- RRIRWRPPRLPRPRPRPCEQPRP — within 0.2 log units, 0.263
- RRIRARPPRLPRPRPRPCQTPRP — lower, -0.0627
- RRIRRRPPRLPRPRPRPWPWPRP — within 0.2 log units, 0.0938
- RRIRIRPPRLPRPRPRPFRFPRP — lower, -0.392
- RRIRARPPRLPRPRPRPPSNPRP — within 0.2 log units, 0.195
- RRIRRRPPRLPRPRPRPAPAPRP — higher, 1.1
- RRIRPRPPRLPRPRPRPCAIPRP — lower, -1.01
- RRIRKRPPRLPRPRPRPVSEPRP — within 0.2 log units, 0.189
- RRIRWRPPRLPRPRPRPLGLPRP — within 0.2 log units, 0.116
- RRIRYRPPRLPRPRPRPKHMPRP — lower, -0.991
- RRIRCRPPRLPRPRPRPHQNPRP — lower, -0.276
- RRIRQRPPRLPRPRPRPPWYPRP — lower, -0.226
- RRIRQRPPRLPRPRPRPTNDPRP — lower, -0.296
- RRIRHRPPRLPRPRPRPAENPRP — within 0.2 log units, -0.0113
- RRIRSRPPRLPRPRPRPKHHPRP — lower, -0.387
- RRIRSRPPRLPRPRPRPRDIPRP — lower, -0.248
- RRIRCRPPRLPRPRPRPRKKPRP — lower, -0.125
- RRIRYRPPRLPRPRPRPQWYPRP — lower, -0.118
- RRIRYRPPRLPRPRPRPQKYPRP — lower, -0.969
- RRIRFRPPRLPRPRPRPMKYPRP — lower, -0.664
- RRIRRRPPRLPRPRPRPDQRPRP — lower, -0.0913
- RRIRYRPPRLPRPRPRPTHCPRP — within 0.2 log units, 0.0602
- RRIRNRPPRLPRPRPRPICLPRP — within 0.2 log units, 0.00214
- RRIRSRPPRLPRPRPRPFTTPRP — lower, -0.392
- RRIRSRPPRLPRPRPRPSADPRP — within 0.2 log units, 0.0633
- RRIRSRPPRLPRPRPRPGMPPRP — lower, -0.122
- RRIRTRPPRLPRPRPRPATPPRP — higher, 0.499
- RRIRKRPPRLPRPRPRPLNQPRP — lower, -0.128
- RRIRMRPPRLPRPRPRPSPIPRP — lower, -0.106
- RRIRYRPPRLPRPRPRPTQYPRP — lower, -0.531
- RRIRQRPPRLPRPRPRPISLPRP — lower, -0.527
- RRIRARPPRLPRPRPRPSENPRP — within 0.2 log units, 0.182
- RRIRYRPPRLPRPRPRPDIIPRP — lower, -0.609
- RRIRSRPPRLPRPRPRPGCQPRP — within 0.2 log units, 0.287
- RRIRTRPPRLPRPRPRPHDIPRP — higher, 2.43
- RRIRIRPPRLPRPRPRPWTWPRP — lower, -0.204
- RRIRYRPPRLPRPRPRPKLGPRP — lower, -0.0974
- RRIRLRPPRLPRPRPRPNVLPRP — lower, -0.304
- RRIRSRPPRLPRPRPRPRYVPRP — lower, -0.597
- RRIRQRPPRLPRPRPRPFARPRP — within 0.2 log units, -0.0149
- RRIRNRPPRLPRPRPRPNKFPRP — lower, -0.597
- RRIRGRPPRLPRPRPRPESAPRP — higher, 1.67
- RRIRPRPPRLPRPRPRPTRLPRP — higher, 0.769
- RRIRQRPPRLPRPRPRPNFYPRP — lower, -0.0848
- RRIRLRPPRLPRPRPRPQLSPRP — lower, -0.0956
- RRIRVRPPRLPRPRPRPNFFPRP — within 0.2 log units, 0.0488
- RRIRRRPPRLPRPRPRPWRLPRP — within 0.2 log units, 0.289
- RRIRKRPPRLPRPRPRPCYHPRP — lower, -0.339
- RRIRYRPPRLPRPRPRPTDIPRP — lower, -0.031
- RRIRVRPPRLPRPRPRPLAQPRP — within 0.2 log units, 0.187
- RRIRPRPPRLPRPRPRPTGMPRP — within 0.2 log units, 0.141
